Measured values from patent US6051232.

Biological target: wild type RT1.A^a (rat MHC class I antigen) on transfected BUF (RT1^b) Morris hepatoma 7316A cells (rat)
Test: flow cytometry on BUF hepatoma cells transfected with WT-RT1.A^a, FITC rabbit anti-rat Ig

positive staining (percent of cells): > 90%
Substance: R2/15S anti-rat RT1.A^a class I polymorphic monoclonal antibody (tool reagent)
